Where “and” joins values, the source holds several entries; their conditions need not be identical. Equal values may be shown once.
How the values were obtained:
[1] = target: T1, Exodus-2 (Homo sapiens, UniProt O00585); experiment: Micro-array analysis of chemokine binding peptides: Exodus-2
T1 construct: purchased 300-35
T1 sequence (O00585 24-134): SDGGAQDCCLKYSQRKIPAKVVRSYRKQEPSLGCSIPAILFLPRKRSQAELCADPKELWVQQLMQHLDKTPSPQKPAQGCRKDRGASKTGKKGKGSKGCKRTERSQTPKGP
Procedure: (§1) (1) Printing: Chemokine (CK) solution (in water) was serially diluted with Print Reagent (GenTel BioSurfaces USA) to final concentrations of 50 μg and 25 μg/ml. BSA/BSA-Biotin control solutions (in water) were diluted with Print Reagent to 100 μg/ml. Amplified stock of M13 phage control (M13KEgIII Cloning Vector, New England Biolabs, Cat.No.E8101S) was stored in Tris Buffered Saline (TBS; pH7.5, 4° C.) and diluted with Print Reagent to the working titre (10^8 pfu/μl). An automated spotting robot (16 pin print tool, 0.4 mm head; BioRobotics, UK) was used to print the CK/BSA control/M13 control, 5 repeats per sample (CK 25 μg/ml and 50 μg/ml; BSA 100 μg/ml; M13 20 μl), on PATH Protein Microarray Slides (GenTel, Prod.No. 2-1005/-1025) at […], and 50-70% relative humidity. Printed micro-array slides were stored at Room Temperature (RT) or 4° C. for at least 24 h before use.
(§2) (2) Blocking: Block Buffer (500 μl/partition; PATHblock, GenTel, Prod.No. 2-1014) was applied to the slide for 1 hour at room temp (RT). After removal of Block Buffer, the slide was air dried for 25 minutes;
(§3) (3) Phage Presented Peptide Binding: Amplified recombinant phage stock was stored in TBS and diluted with Wash Buffer to working titer (10^7 pfu/μl). Recombinant phage suspension (300 μl) was applied per partition and incubated at RT for 1 hour with gentle agitation.
(§4) (4) First Washing: The slides were washed twice with Wash Buffer 300 μl/partition).
(§5) (5) Primary Antibody (Ab) Labeling: The slides were incubated with the Primary Ab (1 mg/ml diluted ×2500 (Wash Reagent), 300 μl; Mouse Anti-M13 monoclonal Ab; Amersham Biosciences, UK; Product Code 27-9420-01) for 45 minutes at RT.
(§6) (6) Second Washing: The slides were washed twice with Wash Buffer (300 μl/partition).
(§7) (7) Secondary Ab Labeling: The slides were incubated with Secondary Ab (1.5 mg/ml diluted ×5000 (Wash Reagent), 300 μl; Cy3-conjugated AffiniPure Goat Anti-Mouse IgG; Jackson ImmunoReserch Labs, USA; Product Code 115-165-062).
(§8) (8) Third Washing: The slides were washed twice with Wash Buffer (300 μl/partition).
(§9) (9) Rinse: the slides were rinsed twice with Rinse Buffer (PATHrinse, GenTel, Prod.No. 2-1018) then dried well.
(§10) (10) Scanning: The peptide-bound, labeled slide was scanned (Laser Intensity 80%, Gain 80%, Resolution 10 μm) with a ScanArray Life Scanner (Packard BioChip Technologies, USA).
(§11) (11) Analysis: Quantitative analysis of micro-array was performed by the SpotReader program of Niles Scientific (USA) and presented as Relative Fluorescence (RF) as a function of CK concentration. Micro-array readout (Cy3 fluorescence) was quantified to determine the relative binding affinities of a CBP for the CKs and by inference, the specificity of the CBP for binding to a CK.

[2] = target: T2, Mig (Homo sapiens, UniProt Q07325); experiment: Micro-array analysis of chemokine binding peptides: Mig; details: limit = start of the upper 75% of that peptide's response range
T2 construct: purchased 300-26
T2 sequence (Q07325 23-125): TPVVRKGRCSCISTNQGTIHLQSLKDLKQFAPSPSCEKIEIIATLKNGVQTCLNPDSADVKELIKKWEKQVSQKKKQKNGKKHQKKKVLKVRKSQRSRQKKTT
Procedure: as §1, §2, §3, §4, §5, §6, §7, §8, §9, §10, §11

[3] = target: T3, Eotaxin 3 (Homo sapiens, UniProt Q9Y258); experiment: Micro-array analysis of chemokine binding peptides: Eotaxin 3; details: limit = start of the upper 75% of that peptide's response range
T3 construct: purchased 300-48
T3 sequence (Q9Y258 24-94): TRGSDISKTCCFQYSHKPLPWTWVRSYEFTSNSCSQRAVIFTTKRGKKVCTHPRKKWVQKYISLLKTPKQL
Procedure: as §1, §2, §3, §4, §5, §6, §7, §8, §9, §10, §11

[4] = target: T4, IP-10 (Homo sapiens, UniProt P02778); experiment: Micro-array analysis of chemokine binding peptides: IP-10; details: limit = start of the upper 75% of that peptide's response range
T4 construct: purchased 300-12
T4 sequence (P02778 22-98): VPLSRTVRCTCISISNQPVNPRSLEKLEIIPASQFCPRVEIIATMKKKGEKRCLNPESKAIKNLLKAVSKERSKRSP
Procedure: as §1, §2, §3, §4, §5, §6, §7, §8, §9, §10, §11

[5] = target: T5, RANTES (Homo sapiens, UniProt P13501); experiment: Micro-array analysis of chemokine binding peptides: RANTES; details: limit = start of the upper 75% of that peptide's response range
T5 construct: purchased 300-06
T5 sequence (P13501 24-91): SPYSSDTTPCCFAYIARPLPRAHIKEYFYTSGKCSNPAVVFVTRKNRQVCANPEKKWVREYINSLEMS
Procedure: as §1, §2, §3, §4, §5, §6, §7, §8, §9, §10, §11

[6] = target: T6, Fractalkine (Homo sapiens, UniProt P78423); experiment: Micro-array analysis of chemokine binding peptides: Fractalkine
T6 construct: purchased 300-31
T6 sequence (P78423 25-100 limits assumed): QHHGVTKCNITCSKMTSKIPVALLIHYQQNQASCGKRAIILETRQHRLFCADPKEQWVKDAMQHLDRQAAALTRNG
Procedure: as §1, §2, §3, §4, §5, §6, §7, §8, §9, §10, §11

[7] = target: T7, MCP-4 (Homo sapiens, UniProt Q99616); experiment: Micro-array analysis of chemokine binding peptides: MCP-4; details: limit = start of the upper 75% of that peptide's response range
T7 construct: purchased 300-24
T7 sequence (Q99616 17-98): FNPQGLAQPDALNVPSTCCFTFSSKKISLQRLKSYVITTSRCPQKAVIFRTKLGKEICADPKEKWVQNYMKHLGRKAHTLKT
Procedure: as §1, §2, §3, §4, §5, §6, §7, §8, §9, §10, §11

[8] = target: T8, MCP-2 (Homo sapiens, UniProt P80075); experiment: Micro-array analysis of chemokine binding peptides: MCP-2; details: limit = start of the upper 75% of that peptide's response range
T8 construct: purchased 300-15
T8 sequence (P80075 24-99): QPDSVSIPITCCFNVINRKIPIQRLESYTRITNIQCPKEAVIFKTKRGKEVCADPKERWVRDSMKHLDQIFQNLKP
Procedure: as §1, §2, §3, §4, §5, §6, §7, §8, §9, §10, §11

[9] = target: T9, TECK (Homo sapiens, UniProt O15444); experiment: Micro-array analysis of chemokine binding peptides: TECK
T9 construct: purchased 300-45
T9 sequence (O15444 24-150): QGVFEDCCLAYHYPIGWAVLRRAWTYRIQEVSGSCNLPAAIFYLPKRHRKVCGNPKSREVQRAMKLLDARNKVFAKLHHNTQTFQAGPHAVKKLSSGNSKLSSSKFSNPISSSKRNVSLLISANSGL
Procedure: as §1, §2, §3, §4, §5, §6, §7, §8, §9, §10, §11

[10] = target: T10, Lymphotactin (Homo sapiens, UniProt P47992); experiment: Micro-array analysis of chemokine binding peptides: Lymphotactin
T10 construct: purchased 300-20
T10 sequence (P47992 22-114): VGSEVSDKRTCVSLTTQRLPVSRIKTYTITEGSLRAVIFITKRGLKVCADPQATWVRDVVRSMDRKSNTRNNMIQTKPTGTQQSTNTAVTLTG
Procedure: as §1, §2, §3, §4, §5, §6, §7, §8, §9, §10, §11

[11] = target: T11, SDF1-β (Homo sapiens, UniProt P48061); experiment: Micro-array analysis of chemokine binding peptides: SDF1-β
T11 construct: purchased 300-28b
T11 sequence (P48061 22-93): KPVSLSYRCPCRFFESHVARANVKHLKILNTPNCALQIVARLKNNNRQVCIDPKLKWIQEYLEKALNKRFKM
Procedure: as §1, §2, §3, §4, §5, §6, §7, §8, §9, §10, §11

[12] = system: IL-8; experiment: Micro-array analysis of chemokine binding peptides: IL-8; details: limit = start of the upper 75% of that peptide's response range
Sequence of IL-8 (P10145 28-99 limits assumed): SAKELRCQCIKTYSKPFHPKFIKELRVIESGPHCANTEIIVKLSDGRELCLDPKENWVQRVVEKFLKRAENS
Procedure: as §1, §2, §3, §4, §5, §6, §7, §8, §9, §10, §11

[13] = target: T12, BCA-1 (Homo sapiens, UniProt O43927); experiment: Micro-array analysis of chemokine binding peptides: BCA-1
T12 construct: purchased 300-47
T12 sequence (O43927 23-109): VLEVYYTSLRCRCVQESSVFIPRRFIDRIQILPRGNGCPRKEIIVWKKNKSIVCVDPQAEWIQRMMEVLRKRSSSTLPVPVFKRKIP
Procedure: as §1, §2, §3, §4, §5, §6, §7, §8, §9, §10, §11

[14] = target: T13, I-TAC (Homo sapiens, UniProt O14625); experiment: Micro-array analysis of chemokine binding peptides: I-TAC; details: limit = start of the upper 75% of that peptide's response range
T13 construct: purchased 300-46
T13 sequence (O14625 22-94): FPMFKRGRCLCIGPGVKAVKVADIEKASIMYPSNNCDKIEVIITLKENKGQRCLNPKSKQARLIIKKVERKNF
Procedure: as §1, §2, §3, §4, §5, §6, §7, §8, §9, §10, §11

[15] = target: T14, I-309 (Homo sapiens, UniProt P22362); experiment: Micro-array analysis of chemokine binding peptides: I-309; details: limit = start of the upper 75% of that peptide's response range
T14 construct: purchased 300-37
T14 sequence (P22362 24-96): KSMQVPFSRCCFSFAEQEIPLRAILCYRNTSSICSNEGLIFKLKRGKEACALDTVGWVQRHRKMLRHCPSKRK
Procedure: as §1, §2, §3, §4, §5, §6, §7, §8, §9, §10, §11

[16] = system: Adjuvant-Induced Arthritis (AIA) rats; experiment: Adjuvant Induced Arthritis (AIA) rat model, Clinical Score; assay type: in vivo
Procedure: Peptides were tested in a rat model of AIA for their anti-inflammatory effects.
Disease Induction: AIA was induced in female Lewis rats aged 7-8 weeks by injection of heat-killed Mycobacerioum tuberculosis (Mt strain H37Ra, Difco Laboratories, USA) dispersed in incomplete Freund's adjuvant to a final concentration of 10 mg/ml (100 μl) at the base of the tail on day 0.
Measurement: Clinical Score (CS, 0-4) for each limb based on (a) joint inflammation, (b) redness, (c) deformity.
Efficacy Protocol 1 (5 rats per group). Peptide/control compound was injected intra-peritoneally (IP, 200 μl) on days 7-11 and 14-18.
Rats were sacrificed (CO2 inhalation) on day 43.
Efficacy Protocol 2 (8 rats per group). Group 1: peptide/PBS was injected intra-peritoneally (IP, 200 μl) on days 7-18; Group 2: PBS was injected IP on days 7-18; Group 3: Dexamethasone (Dexa) was injected IP on days 11 (Clinical Score (CS)1) and 13. Rats were sacrificed on day 43.
Combination Efficacy Protocol 1 (8 rats per group). Group 1: peptide injected IP on days 7-18; Group 2: PBS injected IP on days 7-18; Group 3: Dexa injected IP on day 11 (CS 1) and day 13; Group 4: Dexa injected IP on days 11 and 13 then peptide injected on days 14-22; Group 5: Dexa injected IP on days 11 and 13 then PBS injected on days 14-22.
(§12) Combination Efficacy Protocol 2 (8 rats per group). Group 1: peptide injected IP on days 7-18; Group 2: PBS injected IP on days 7-18; Group 3: Dexa injected IP on day 11 (CS 1) and day 13 then PBS on days 14-22; Group 4: PBS injected IP on days 7-10,12,14; Dexa injected on days 11, 13. Peptide injected on days 15-19.
as §12, with “Protocol 3” for “Protocol 2”, “4: peptide” for “4: PBS”
Control Reagents for Adjuvant Induced Arthritis: Anti-Inflammatory Control: Dexamethasone Sodium Phosphate (Dexacort Forte, Teva) was dissolved in Phosphate Buffer Saline (PBS, GIBCO) to a final concentration of 1 mg/ml and injected in 200 μl (200 μg).
Negative Control: Phosphate Buffer Saline (PBS).

[17] = Dexa 200 μg IP on days 11 and 13

Row | Substance | binding to Exodus-2, stated in words [1] | binding to Mig with relatively high affinity (Relative Fluorescence Units) [2] | binding to Eotaxin 3 with relatively high affinity (Relative Fluorescence Units) [3] | binding to IP-10 with relatively high affinity (Relative Fluorescence Units) [4] | binding to RANTES with relatively high affinity (Relative Fluorescence Units) [5] | binding to Fractalkine, stated in words [6] | binding to MCP-4 with relatively high affinity (Relative Fluorescence Units) [7] | binding to MCP-2 with relatively high affinity (Relative Fluorescence Units) [8] | binding to TECK, stated in words [9] | binding to Lymphotactin, stated in words [10] | binding to SDF1-β, stated in words [11] | binding to IL-8 with relatively high affinity (Relative Fluorescence Units) [12] | binding to BCA-1, stated in words [13] | binding to I-TAC with relatively high affinity (Relative Fluorescence Units) [14] | binding to I-309 with relatively high affinity (Relative Fluorescence Units) [15] | maximal anti-inflammatory effect ([16]; 25 μg IP on days 7-18) | day by which inflammation approached / was comparable with the disease, untreated group [16, 17] | day from which inflammation increased (onset of inflammation) [16, 17] | day until which inflammation was at the base line ([16]; Dexa IP on days 7-11 and 14-18, afterwards rose almost to the untreated, disease group)
1 | DYD [Ph-p33] | bound | > 15,000 RFU | > 15,000 RFU | > 15,000 RFU | > 15,000 RFU | bound | > 15,000 RFU | > 15,000 RFU | bound | bound | bound | > 15,000 RFU | bound | – | – | – | – | – | –
2 | WVFGVHFCK [Ph-p8.77] | – | > 15,000 RFU | > 15,000 RFU | – | – | bound | > 15,000 RFU | > 15,000 RFU | bound | – | bound | > 15,000 RFU | bound | > 15,000 RFU | > 15,000 RFU | 23% | – | – | –
3 | Dexamethasone Sodium Phosphate [reference compound] | – | – | – | – | – | – | – | – | – | – | – | – | – | – | – | – | 21 days and 28 days | 15 days and 14 days | 24 days

Reference: patent US12072338B2, “Pharmaceutical peptides for the treatment of inflammatory diseases” (PROTAGONISTS LTD., priority 2007, dated 2024)
